Test results from patent publication US20030175885A1 (REGEN BIOTECH, published 2003).

Tests used:
α3β1 integrin [1] = molecular target: T1, α3β1 integrin (UniProt P26006 33-1051; P05556 21-798); test: HCE cell adhesion and adhesion inhibition assays
T1 construct: whole, on cells; Never used as a purified protein; It is always the receptor on HCE cells in adhesion assays; also called integrin α3β1; functional receptor for βig-h3
Protocol: (§1) Function-blocking experiments using monoclonal antibodies against various integrin subunits were carried out to examine whether α3β1 integrin, known as a surface receptor of βig-h3, would be involved in the cell adhesion mediated by the synthetic peptides EPDIM and NKDIL. HCE was preincubated at 37° C. for 30 min in the presence of each of the monoclonal antibodies (5 μg/ml) against different types of integrins. The preincubated cells were transferred onto plates precoated with 100 μM EPDIM or 100 μM NKDIL and then incubated further at 37° C. for 1 hour, followed by the quantitative analysis with hexosaminidase substrate as in Example 1-2.

α3β1 integrin [2] = molecular target: T1, α3β1 integrin; test: HCE cell adhesion to coated peptide (100 µM) with function-blocking anti-integrin mAbs
Protocol: as §1

T1 sequence (P26006 33-1051, chain 1 of 2): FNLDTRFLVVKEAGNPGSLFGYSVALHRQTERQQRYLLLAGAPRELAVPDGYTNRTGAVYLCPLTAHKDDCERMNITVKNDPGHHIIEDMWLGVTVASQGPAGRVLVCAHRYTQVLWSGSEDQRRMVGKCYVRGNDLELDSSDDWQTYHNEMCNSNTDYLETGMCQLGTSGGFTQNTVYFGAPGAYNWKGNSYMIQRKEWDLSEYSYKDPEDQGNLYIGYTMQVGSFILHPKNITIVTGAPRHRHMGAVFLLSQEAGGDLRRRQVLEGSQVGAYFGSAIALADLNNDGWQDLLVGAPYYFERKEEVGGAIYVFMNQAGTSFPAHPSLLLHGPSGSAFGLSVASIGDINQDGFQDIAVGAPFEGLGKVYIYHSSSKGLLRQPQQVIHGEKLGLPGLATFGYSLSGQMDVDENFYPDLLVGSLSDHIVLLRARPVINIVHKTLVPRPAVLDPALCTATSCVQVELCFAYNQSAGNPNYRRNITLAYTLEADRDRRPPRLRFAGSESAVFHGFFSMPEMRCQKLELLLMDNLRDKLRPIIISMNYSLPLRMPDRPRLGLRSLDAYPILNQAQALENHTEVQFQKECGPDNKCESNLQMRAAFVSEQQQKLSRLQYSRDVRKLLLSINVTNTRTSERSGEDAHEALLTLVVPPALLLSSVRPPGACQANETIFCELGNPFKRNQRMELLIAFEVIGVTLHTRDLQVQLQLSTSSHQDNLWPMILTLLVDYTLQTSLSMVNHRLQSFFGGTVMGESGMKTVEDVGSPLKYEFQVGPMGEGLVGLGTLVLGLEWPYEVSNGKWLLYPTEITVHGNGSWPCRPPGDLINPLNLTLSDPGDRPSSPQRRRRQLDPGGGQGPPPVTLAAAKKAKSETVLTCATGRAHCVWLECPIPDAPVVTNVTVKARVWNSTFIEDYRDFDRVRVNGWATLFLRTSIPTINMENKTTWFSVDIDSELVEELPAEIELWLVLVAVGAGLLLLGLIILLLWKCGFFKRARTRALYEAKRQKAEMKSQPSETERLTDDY
T1 sequence (P05556 21-798, chain 2 of 2): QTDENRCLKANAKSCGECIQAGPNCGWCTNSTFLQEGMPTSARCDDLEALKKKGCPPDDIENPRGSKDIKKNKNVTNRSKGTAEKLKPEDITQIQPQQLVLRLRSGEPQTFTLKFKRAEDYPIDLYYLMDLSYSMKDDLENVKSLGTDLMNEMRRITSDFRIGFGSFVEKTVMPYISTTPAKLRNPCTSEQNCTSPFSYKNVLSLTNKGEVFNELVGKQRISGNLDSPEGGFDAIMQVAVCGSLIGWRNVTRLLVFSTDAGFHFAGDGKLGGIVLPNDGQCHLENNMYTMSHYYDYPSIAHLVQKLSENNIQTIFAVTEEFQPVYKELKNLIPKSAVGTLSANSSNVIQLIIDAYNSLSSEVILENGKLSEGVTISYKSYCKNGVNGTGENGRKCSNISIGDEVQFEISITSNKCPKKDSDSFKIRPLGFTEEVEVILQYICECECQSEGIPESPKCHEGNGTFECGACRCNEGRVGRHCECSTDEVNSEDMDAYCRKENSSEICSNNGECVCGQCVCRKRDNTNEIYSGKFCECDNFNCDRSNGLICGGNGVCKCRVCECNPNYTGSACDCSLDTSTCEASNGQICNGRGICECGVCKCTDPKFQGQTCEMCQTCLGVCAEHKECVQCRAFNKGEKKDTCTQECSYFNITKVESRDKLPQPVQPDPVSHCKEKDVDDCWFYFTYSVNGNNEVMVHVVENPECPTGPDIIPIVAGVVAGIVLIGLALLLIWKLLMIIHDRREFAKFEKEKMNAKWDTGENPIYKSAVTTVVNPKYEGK

B1: synthetic peptide EPDIM (peptide)
peptide: EPDIM
notes: Made by solid phase synthesis; also called 4th fas-1 domain-derived synthetic peptide; EPDIM (a.a. 615-619)
- binding result (α3β1 integrin [1]): binds

B2: synthetic peptide NKDIL (peptide)
peptide: NKDIL
notes: Made by solid phase synthesis; also called 2nd fas-1 domain-derived synthetic peptide; NKDIL (a.a. 354-358)
- binding result (α3β1 integrin [2]): binds
